Experimental data published in patent publication US20230080534A1 (SHANGHAI BIOTROY BIOTECHNIQUE, published 2023).
Each block holds one binder with its values, some of them ahead of it. No end group written: not given here.

Legend:
SEMG2(563-574) fragment = target: T1, SEMG2(563-574) fragment (human); assay: ELISA, immobilized antigen SEMG2 (563-574)
T1 peptide: VAQDDHLTQQYN
Text: (§1) To clearly distinguish the binding epitopes of blocking antibodies (i.e., antibodies that can inhibit the binding between SEMG2 and CD27) and non-blocking antibodies, a corresponding ELISA analysis method was established. […] Anti-mouse or anti-rabbit secondary antibodies were then used to detect the corresponding bound antibodies.

[1] = target: T2, SEMG2(497-509) polypeptide QIEKLVEGKSQIQ (human); assay: ELISA, immobilized peptide QIEKLVEGKSQIQ
T2 peptide: QIEKLVEGKSQIQ
Text: (§2) FIG. 20 depicts the value detected by ELISA, i.e., OD₄₅₀ absorbance. […] This experiment is used to determine the precise amino acid epitopes that different monoclonal antibodies bind to, and the relative importance of each amino acid to the binding antibody.

QIAKLVEGKSQIQ = target: T3, QIAKLVEGKSQIQ (not fully specified); assay: ELISA, immobilized peptide QIAKLVEGKSQIQ
T3 construct: member of the group m41; the text speaks of glycine substitution, the sheet prints alanine
T3 peptide: QIAKLVEGKSQIQ

[2] = target: T4, human SEMG2 full-length protein (human, UniProt Q02383 24-582, limits assumed); assay: biolayer interferometry (ForteBio Blitz or Gator)
T4 construct: also called SEMG2 protein; semenogelin 2
T4 sequence: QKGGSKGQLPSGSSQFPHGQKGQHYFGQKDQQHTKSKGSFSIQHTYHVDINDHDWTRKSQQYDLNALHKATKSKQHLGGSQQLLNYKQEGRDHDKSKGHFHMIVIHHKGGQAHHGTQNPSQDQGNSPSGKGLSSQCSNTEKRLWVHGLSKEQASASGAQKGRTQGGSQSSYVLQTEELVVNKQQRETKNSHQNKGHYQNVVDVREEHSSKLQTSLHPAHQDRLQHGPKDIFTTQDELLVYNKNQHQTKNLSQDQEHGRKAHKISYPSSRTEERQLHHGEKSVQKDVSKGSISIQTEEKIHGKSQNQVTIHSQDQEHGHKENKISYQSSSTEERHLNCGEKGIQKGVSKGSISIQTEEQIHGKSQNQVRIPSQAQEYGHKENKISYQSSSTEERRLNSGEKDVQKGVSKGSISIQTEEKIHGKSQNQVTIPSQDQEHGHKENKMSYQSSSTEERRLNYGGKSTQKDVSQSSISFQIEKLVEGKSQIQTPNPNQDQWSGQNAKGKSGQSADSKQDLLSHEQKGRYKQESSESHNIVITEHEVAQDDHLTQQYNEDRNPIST
Method in brief: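 KD of antibodies binding human SEMG2 measured by biolayer interferometry, with antibody and SEMG2 in SD buffer. KD derived by binding-curve analysis.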

QIEKLVEGKSQIA = target: T5, QIEKLVEGKSQIA (not fully specified); assay: ELISA, immobilized peptide QIEKLVEGKSQIA
T5 construct: alanine at this position
T5 peptide: QIEKLVEGKSQIA
Text: as §2

QIEKAVEGKSQIQ = target: T6, QIEKAVEGKSQIQ (not fully specified); assay: ELISA, immobilized peptide QIEKAVEGKSQIQ
T6 construct: alanine at this position
T6 peptide: QIEKAVEGKSQIQ
Text: as §2

QIEKLVEGKSAIQ = target: T7, QIEKLVEGKSAIQ (not fully specified); assay: ELISA, immobilized peptide QIEKLVEGKSAIQ
T7 construct: alanine at this position
T7 peptide: QIEKLVEGKSAIQ
Text: as §2

SEMG2(354-403) fragment = target: T8, SEMG2(354-403) fragment (human); assay: ELISA, immobilized antigen SEMG2 (354-403)
T8 peptide: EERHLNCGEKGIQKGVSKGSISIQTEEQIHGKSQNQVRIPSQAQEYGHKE
Text: as §1

[3] = target: T9, BSA-conjugated human SEMG2 (497-509) polypeptide (human, also: coupled to BSA, site not given here); assay: ELISA on BSA-SEMG2 (497-509), antibody titrated
T9 peptide: QIEKLVEGKSQIQ

QIEKLVEGASQIQ = target: T10, QIEKLVEGASQIQ (not fully specified); assay: ELISA, immobilized peptide QIEKLVEGASQIQ
T10 construct: member of the group m41; the text speaks of glycine substitution, the sheet prints alanine
T10 peptide: QIEKLVEGASQIQ
Text: as §2

[4] = target: T4, human SEMG2 full-length protein; assay: ELISA on SEMG2 protein, run beside the humanized antibodies; the EC50 table prints no unit, the axis is log (antibody concentration, nM)
[5] = target: T4, human SEMG2 full-length protein; assay: ELISA, immobilized antigen SEMG2 (1-582)
Text: as §1

AIEKLVEGKSQIQ = target: T11, AIEKLVEGKSQIQ (not fully specified); assay: ELISA, immobilized peptide AIEKLVEGKSQIQ
T11 construct: member of the group m41; the text speaks of glycine substitution, the sheet prints alanine
T11 peptide: AIEKLVEGKSQIQ
Text: as §2

QIEKLVAGKSQIQ = target: T12, QIEKLVAGKSQIQ (not fully specified); assay: ELISA, immobilized peptide QIEKLVAGKSQIQ
T12 construct: member of the group m41; the text speaks of glycine substitution, the sheet prints alanine
T12 peptide: QIEKLVAGKSQIQ
Text: as §2
To further precisely define the exact epitopes (specific to the level of single amino acid) to which blocking antibodies MM02, MM05, MM07, MM08, MM13, MM14 bind, corresponding ELISA analysis method was established. […] Anti-mouse or anti-rabbit secondary antibodies were then used to detect the corresponding bound antibodies.

QIEKLVEAKSQIQ = target: T13, QIEKLVEAKSQIQ; assay: ELISA, immobilized peptide QIEKLVEAKSQIQ
T13 construct: member of the group m41; position 504 is glycine in SEMG2 and the sheet prints alanine there
T13 peptide: QIEKLVEAKSQIQ
Text: as §2

QIEKLVEGKSQAQ = target: T14, QIEKLVEGKSQAQ (not fully specified); assay: ELISA, immobilized peptide QIEKLVEGKSQAQ
T14 construct: member of the group m41; the text speaks of glycine substitution, the sheet prints alanine
T14 peptide: QIEKLVEGKSQAQ
Text: as §2

SEMG2(442-453) fragment = target: T15, SEMG2(442-453) fragment (human); assay: ELISA, immobilized antigen SEMG2 (442-453)
T15 peptide: IHGKSQNQVTIP
Text: as §1

QIEKLAEGKSQIQ = target: T16, QIEKLAEGKSQIQ (not fully specified); assay: ELISA, immobilized peptide QIEKLAEGKSQIQ
T16 construct: member of the group m41; the text speaks of glycine substitution, the sheet prints alanine
T16 peptide: QIEKLAEGKSQIQ
Text: as §2

QAEKLVEGKSQIQ = target: T17, QAEKLVEGKSQIQ (not fully specified); assay: ELISA, immobilized peptide QAEKLVEGKSQIQ
T17 construct: member of the group m41; the text speaks of glycine substitution, the sheet prints alanine
T17 peptide: QAEKLVEGKSQIQ
Text: as §2

QIEALVEGKSQIQ = target: T18, QIEALVEGKSQIQ (not fully specified); assay: ELISA, immobilized peptide QIEALVEGKSQIQ
T18 construct: member of the group m41; the text speaks of glycine substitution, the sheet prints alanine
T18 peptide: QIEALVEGKSQIQ
Text: as §2

QIEKLVEGKAQIQ = target: T19, QIEKLVEGKAQIQ (not fully specified); assay: ELISA, immobilized peptide QIEKLVEGKAQIQ
T19 construct: alanine at this position
T19 peptide: QIEKLVEGKAQIQ
Text: as §2

[6] = target: T2, SEMG2(497-509) polypeptide QIEKLVEGKSQIQ; assay: ELISA, immobilized antigen SEMG2 (497-509)
Text: as §1

[7] = target: T4, human SEMG2 full-length protein; assay: ELISA, plate coated with SEMG2 protein, anti-mouse secondary antibody; the EC50 table prints no unit, the axis is log (antibody concentration, nM)
[8] = target: T4, human SEMG2 full-length protein; assay: ELISA (FIG. 21B-D)
[9] = target: T9, BSA-conjugated human SEMG2 (497-509) …; assay: ELISA (FIG. 21B-D)
[10] = target: T4, human SEMG2 full-length protein; assay: ELISA on SEMG2; the EC50 table prints no unit, the axis is log (antibody concentration, nM)
[11] = target: T9, BSA-conjugated human SEMG2 (497-509) …; assay: ELISA on BSA-S2 (497-509); the EC50 table prints no unit, the axis is log (antibody concentration, nM)

binding result (SEMG2(563-574) fragment): no binding
OD450 absorbance [1]: 1.27
OD450 absorbance (QIAKLVEGKSQIQ): 0.728
Kd [2]: 5.28 nM
OD450 absorbance (QIEKLVEGKSQIA): 1.21
OD450 absorbance (QIEKAVEGKSQIQ): 0.259
OD450 absorbance (QIEKLVEGKSAIQ): 1.26
A450 absorbance (SEMG2(354-403) fragment): 0.008
binding result (SEMG2(354-403) fragment): no binding
EC50 (read off the curve) [3]: ~8 ng/mL
OD450 absorbance (QIEKLVEGASQIQ): 0.852
EC50 [4]: 0.147 nM
A450 absorbance [5]: 1.17
OD450 absorbance (AIEKLVEGKSQIQ): 0.638
OD450 absorbance (QIEKLVAGKSQIQ): 0.615
OD450 absorbance (QIEKLVEAKSQIQ): 0.723
OD450 absorbance (QIEKLVEGKSQAQ): 0.868
A450 absorbance (SEMG2(442-453) fragment): 0.009
binding result (SEMG2(442-453) fragment): no binding
OD450 absorbance (QIEKLAEGKSQIQ): 0.558
OD450 absorbance (QAEKLVEGKSQIQ): 0.796
OD450 absorbance (QIEALVEGKSQIQ): 0.726
OD450 absorbance (QIEKLVEGKAQIQ): 0.168
A450 absorbance [6]: 1.17
EC50 [7]: 0.535 nM
B1: MM05 (antibody, IgG1, V domains shown)
VH: QVQLQQPGAELVRPGASVKLSCEASGYTFTSYWMNWVKQRPGQGLEWIGMIDPSDSETHYNQMFKDKATLTVDKSSSTAYMQLSSLTSEDSAVYYCARYLGGKEGSFDYWGQGTTLTVSS
VL: DIVMSQSPSSLAVSAGEKVTMSCKSSQSLLNSRTRKNYLAWYQQKPGQSPKLLIYWASTRESGVPDRFTGSGSGTDFTLTISSVQAEDLAVYYCKQSYSLPWTFGGGTKLEIKR

fold higher affinity than the parent antibody (H88-96) [8]: > 10 fold
fold higher affinity than the parent antibody (H88-96) [9]: > 10 fold
EC50 [10]: 0.241 nM
EC50 [11]: 3.36 nM
B2: 96-10R-10 (antibody, V domains shown)
VH: QVQLLESGGGLVQPGGSLRLSCSASGFTFSSRAMHWVRQAPGKGLEYVSAISSNGGSTYYADSVKGRFTISRDNSKNTLYLQMSSLRAEDTAVYYCVIEGGSTGSTTSGAFDIWGQGTMVTVSS
VL: DIQMIQSPPSVSASVGDTVTIACRANQGIDSWLAWYQQKPGRAPKLLIYSASRLQSGVPSRFSGGGSGTDFALTISNLQPEDFATYYCQQALSLPITFGQGTRLEIK
